Results on 3 molecules are retold here after US20230243836A1 (published 2023).

Test [1] concerns the target T1, VISTA-Fc fusion protein (human).
T1 construct: The limits of the VISTA and Fc parts are marked only by underline and bold, which are not preserved
T1 chain: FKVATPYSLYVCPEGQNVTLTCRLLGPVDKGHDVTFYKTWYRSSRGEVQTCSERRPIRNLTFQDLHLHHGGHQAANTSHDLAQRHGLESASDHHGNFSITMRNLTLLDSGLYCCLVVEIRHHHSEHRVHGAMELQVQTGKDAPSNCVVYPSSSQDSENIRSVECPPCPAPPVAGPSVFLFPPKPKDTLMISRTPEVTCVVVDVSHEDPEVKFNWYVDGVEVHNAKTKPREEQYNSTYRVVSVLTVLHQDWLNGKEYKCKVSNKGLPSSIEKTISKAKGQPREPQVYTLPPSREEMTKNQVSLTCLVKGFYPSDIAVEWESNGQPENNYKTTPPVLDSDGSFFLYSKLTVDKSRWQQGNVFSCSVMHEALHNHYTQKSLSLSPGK
Description: biosensor, VISTA-Fc immobilized, PSGL-1A in flow (0.3-9.6 µM), HBS with Ca and Mg; equilibrium affinity analysis (1:1 model). The protocol: (§1) The immobilized VISTA-Fc sample was equilibrated in HEPES buffered saline (HBS) containing calcium (1.5 mM calcium chloride) and magnesium (1.0 mM magnesium chloride). The same buffer was used as running buffer. Samples containing the PSGL-1A or PSGL-1B, which also contained calcium and magnesium, were flowed across a solid surface containing the immobilized VISTA-Fc at a flow rate of 60 μl/min, with 120 seconds of contact time and 300 seconds for dissociation after the surface was regenerated with a 3 second pulse of glycine (pH 1.5). Six difference concentrations of PSGL-1A and PSGL-1B were assayed (0.3 μM, 0.60 μM, 1.20 μM, 2.4 μM, 4.8 μM and 9.6 μM).
(§2) Two different analyses of the experiments were performed: (1) a two-state binding model; and (2) an equilibrium affinity analysis (1:1 model).

For test [2], the target named is T1, VISTA-Fc fusion protein. Description: biosensor, VISTA-Fc immobilized, PSGL-1A in flow (0.3-9.6 µM), HBS with Ca and Mg; two-state binding model. On the procedure: as §1, §2
In test [3] the target is T1, VISTA-Fc fusion protein. Description: biosensor, VISTA-Fc immobilized; estimated affinity, called qualitative.
For test [4], the target named is T1, VISTA-Fc fusion protein. Description: biosensor, VISTA-Fc immobilized, PSGL-1B in flow (0.3-9.6 µM), HBS with Ca and Mg; equilibrium affinity analysis (1:1 model). On the procedure:
as §1, §2

Test [5] concerns the target T1, VISTA-Fc fusion protein. Description: biosensor, VISTA-Fc immobilized, PSGL-1B in flow (0.3-9.6 µM), HBS with Ca and Mg; two-state binding model. On the procedure:
as §1, §2

For test [6], the target named is T2, IgG1-Fc (RED Systems; 110-HG-100) (UniProt P01857-1 100-330 = IgG part).
T2 construct: domain: Fc; Negative control, coupled to Sulfo-SBED; also called negative isotype control IgG-Fc
Description: Sulfo-SBED photo-crosslinking to HL-60 cells, Protein A pull-down, anti-PSGL-1 Western blot. The protocol:
Also in these experiments, samples of VISTA-Fc fusion protein (described in Example I) and negative controls of an anti-CD28 antibody (BioXcell, BE0248) and IgG1-Fc (RED Systems; 110-HG-100) were covalently coupled to a bifunctional linker (Sulfo-SBED—ThermoFisher Scientific; 33073) using the manufacturing recommended conditions. The resulting samples were incubated with HL-60 cells for 30 min. at room temperature in a dark place. Crosslinking was photoactivated with a UV light source for 20 min. Cells were then lysed and a Protein A Sepharose pull-down was performed. A Western Blot using an anti-PSGL-1 polyclonal antibody (RED Systems; AF3345) or Streptavidin-HRP was performed on the samples.
(Immunoblotting shows a protein as a band on a membrane.)

B1: PSGL-1 construct A (Fc-fused PSGL-1 with IgG kappa signal sequence and propeptide sequence) (Fc fusion)
chain: QATEYEYLDYDFLPETEPPEMLRNSTDTTPLTGPGTPESTTVEPAARRSTGLDAGGAVTELTTELANMGNLSTDSAAMEIQTTQPAATEAQTTPLAATEAQTTRLTATEAQTTPLAATEAQTTPPAATEAQTTQPTGLEAQTTAPAAMEAQTTAPAAMEAQTTPPAAMEAQTTQTTAMEAQTTAPEATEAQTTQPTATEAQTTPLAAMEALSTEPSATEALSMEPTTKRGLFIPFSVSSVTHKGIPMAASNLSVARSVECPPCPAPPVAGPSVFLFPPKPKDTLMISRTPEVTCVVVDVSHEDPEVKFNWYVDGVEVHNAKTKPREEQYNSTYRVVSVLTVLHQDWLNGKEYKCKVSNKGLPSSIEKTISKAKGQPREPQVYTLPPSREEMTKNQVSLTCLVKGFYPSDIAVEWESNGQPENNYKTTPPVLDSDGSFFLYSKLTVDKSRWQQGNVFSCSVMHEALHNHYTQKSLSLSPGK
notes: Their limits are marked only by italic and bold, which are not preserved; Cells were co-transfected with GCNT1 and FUT3 glycosyltransferases for post-translational modification; also called PSGL-1A
For B1, the Kd – broadly, the equilibrium constant for the complex coming apart – in test [1] was 3.01 µM; in test [2], 32.1 µM; in test [3], approximately 3 µM.

B2: PSGL-1 construct B (Fc-fused PSGL-1 with IgG kappa signal sequence and tandem repeat unit) (Fc fusion)
chain: DQATEYEYLDYDFLPETEPPEMLRNSTDTTPLTGPGTPESTTVEPAARRSTGLDAGGAVTELTTELANMGNLSTDSAAMEIQTTQPAATEAQTTQPVPTEAQTTPLAATEAQTTRLTATEAQTTPLAATEAQTTPPAATEAQTTQPTGLEAQTTAPAAMEAQTTAPAAMEAQTTPPAAMEAQTTQTTAMEAQTTAPEATEAQTTQPTATEAQTTPLAAMEALSTEPSATEALSMEPTTKRGLFIPFSVSSVTHKGIPMAASNLSVNYPVGAPDHISVARSVECPPCPAPPVAGPSVFLFPPKPKDTLMISRTPEVTCVVVDVSHEDPEVKFNWYVDGVEVHNAKTKPREEQYNSTYRVVSVLTVLHQDWLNGKEYKCKVSNKGLPSSIEKTISKAKGQPREPQVYTLPPSREEMTKNQVSLTCLVKGFYPSDIAVEWESNGQPENNYKTTPPVLDSDGSFFLYSKLTVDKSRWQQGNVFSCSVMHEALHNHYTQKSLSLSPGK
notes: Its limits are marked only by italic, which is not preserved; Cells were co-transfected with GCNT1 and FUT3 glycosyltransferases; also called PSGL-1B
In the case of B2, the Kd was approximately 5 µM in test [3], 4.76 µM in test [4] and 5.09 µM in test [5].

B3: P-selectin glycoprotein ligand 1 (PSGL-1) expressed on human cells (receptor)
chain: QATEYEYLDYDFLPETEPPEMLRNSTDTTPLTGPGTPESTTVEPAARRSTGLDAGGAVTELTTELANMGNLSTDSAAMEIQTTQPAATEAQTTPLAATEAQTTRLTATEAQTTPLAATEAQTTPPAATEAQTTQPTGLEAQTTAPAAMEAQTTAPAAMEAQTTPPAAMEAQTTQTTAMEAQTTAPEATEAQTTQPTATEAQTTPLAAMEALSTEPSATEALSMEPTTKRGLFIPFSVSSVTHKGIPMAASNLSVNYPVGAPDHISVKQCLLAILILALVATIFFVCTVVLAVRLSRKGHMYPVRNYSPTEMVCISSLLPDGGEGPSATANGGLSKAKSPGLTPEPREDREGDDLTLHSFLP
notes: Endogenous protein on cells; also called SELPLG; CD162
As for B3, the binding result in test [6] was “no binding”.
